Data from the Human Domainome abundance scans (Beltran et al. 2025).

B1: Steroid hormone receptor ERR2, residues 100 to 176; numbered along this chain, O95718 (parent)
chain: KRLCLVCGDIASGYHYGVASCEACKAFFKRTIQGNIEYSCPATNECEITKRRRKSCQACRFMKCLKVGMLKEGVRLD

Variants of: B1
Assay: abundance fitness (aPCA) (normalised: wild type 0, dead -1); higher = more abundant; growth selection in yeast, the domain comes from the species named
Settings: Homo sapiens

Abundance fitness: each site, then its substitutions
C59: F -0.451; N -0.711; Y -0.745; H -0.545; Q -0.891; D -0.513; A -0.686; L -0.873; R -0.755; I -0.542; P -0.688; M -0.631; K -0.483; V -0.576; T -0.872; S -0.887; E -0.704; W -0.684
R52: F -0.056; M -0.084; W -0.043; T 0.039; V -0.003; G 0.062; E 0.136; D -0.242; K -0.115; A -0.037; C -0.86; Y -0.452; H -0.627; L 0.099; Q 0.128; N -0.156; S -0.155; P -0.339
C64: D -1.05; A -0.301
K54: G 0.155; Q 0.195; H 0.144; C -0.351; I 0.073; Y 0.091; E 0.129; W -0.05; L 0.005; R 0.008; F -0.243; N 0.175; A 0.009; V 0.007; D 0.092; T -0.024
R51: K -0.002; L -0.097; H -0.08; T -0.04; Q 0.119; C -0.803; M 0.173; E 0.152; D -0.084; N -0.072; Y -0.384; W 0.022; A 0.002; I -0.269; S -0.14; F -0.161; G 0.033
F61: E -0.892; I -0.074; N -0.541; D -1.06; V -0.269; C -1.06; G -0.602; A -0.444; S -0.509; T -0.759; P -1.29; M 0; W 0.125; R -0.487; Q -0.257; K -0.266
C46: Y -0.59; F -0.768; Q -0.834; I -1.06; P -0.796; H -0.308; M -0.557; W -0.733; E -0.623; G -0.679; A -0.888; K -0.572; N -0.735; R -0.704; L -0.803; V -0.615; D -0.844; S -0.539; T -0.766
A58: F -0.377; Q -0.145; N 0.044; S -0.33; R -0.076; K -0.089; M -0.227; E -0.235; D -0.334; W -0.308; H -0.445; C -0.346; Y -0.347; G -0.205; P -0.61; L -0.44; T -0.518; V -0.772
E45: Q 0.055; S -0.149; W -0.981; T -0.209; G 0.003; I -0.288; F -0.329; L -0.303; N -0.235; D -0.086; M -0.176; C -0.396; P -0.637; A -0.172; V -0.144; H -0.143
T49: S -0.164; K -0.035; W -0.199; E -0.003; F -0.254; C -0.948; A 0.189; N 0.015; Q -0.332; P -0.223; D 0.118; L -0.117; G -0.041; R -0.2; V -0.138; H -0.523; I -0.281
K63: W -0.58; M -0.11; E -0.596; G -0.534; I -0.461; C -0.242; V -0.522; T -0.226; S -0.611; Q -0.21; A -0.233; D -0.783; H -0.359; Y -0.982; P -0.914; F -0.931; R -0.145; N -0.605; L -0.55
M62: Q 0.04; A 0.013; E 0.086; T 0.106; R -0.026; K 0.141; P -1.05; V -0.006; G -0.059; D -0.057; S 0.148; W -0.136; I -0.148; H -0.496; L -0.135; C -1.07
E47: V -0.14; M -0.592; N -0.09; Q -0.083; I -0.476; K -0.155; C -0.172; T -0.112; A -0.102; F -0.354; S -0.229; Y -0.184; G -0.165; L -0.103; D 0.038
Q57: A -0.018; M -0.221; H -0.347; D -0.042; C -0.152; G 0.122; R -0.17; I -0.633; S -0.125; F -0.243; K -0.118; T -0.325; N -0.246; V -0.213; P -0.066; L -0.232; W -0.15
S55: P 0.257; D 0.318; I 0.344; C 0.393; T 0.277; L 0.341; G 0.336; N 0.405; W 0.263; H 0.351; K 0.149; A 0.278; Y 0.206; M 0.374; R 0.22
K50: E 0.224; A 0.126; T 0.019; F 0.047; N 0.071; V 0.118; L -0.088; G -0.102; C -0.51; D -0.055; M 0.098; Y -0.128; I 0.112; Q 0.142
R53: A 0.005; P -0.069; W -0.084; M 0.107; S -0.114; D 0.026; E 0.073; C -0.103; Y -0.14; K 0.015; L 0.074; V -0.008; Q 0.096; T 0.063; G 0.049; N 0.027; F 0.065
N44: E 0.022; Q -0.013; Y -0.278; W -0.269; F 0.068; C -0.473; P -0.741; G 0.117; H -0.314; K 0.007; V -0.077; R 0.011; L -0.278; I 0.034; D 0.119; S -0.127; T -0.22
I48: R -0.518; G -0.191; S -0.108; P -0.242; N 0.266; V 0.007; F -0.298; M -0.166; T -0.159; C -0.312; W -0.227; A -0.157
C56: T -0.691; I -0.679; H -0.599; P -0.666; Y -0.884; A -0.828; L -0.76; S -0.847; W -0.722; M -0.9; D -1.17; G -0.718; R -0.872; E -0.627; F -0.936; N -0.845
T43: W -0.021; Y -0.252; V -0.012; S -0.237
R60: V -0.098; E -0.764; D -0.828; P -0.798; A -0.031; Q 0.173; L 0.183; Y 0.279; M 0.108; C 0.013; F 0.211; T 0.051; K 0.177; H 0.254; I -0.23
